Test results taken from article PMC5531254, “MRE11 stability is regulated by CK2-dependent interaction with R2TP complex” (Oncogene, 2017).
Each block holds one molecule with its values, some of them ahead of it. No end group written: not given here.

Tests used:
[1] = target: PIH1D1 N-terminal PIH-N domain fragment (UniProt Q9NWS0); assay: ITC; MRE11 peptides with purified PIH1D1 PIH-N domain fragment, performed as described previously
PIH1D1 (51-180) [2] = target: PIH1D1 (51-180) (UniProt Q9NWS0); assay: ITC; ~80 uM protein and ~800 uM peptide; performed in triplicate, means ± standard deviation; ITC as described previously
PIH1D1 (51-180) [3] = target: T1, PIH1D1 (51-180) (UniProt Q9NWS0 51-180); assay: as above; details: both partners purified
T1 construct: also called PIH1D1 N-terminal PIH-N domain fragment (aa 51-180); PIH-N; source: purified as described previously
T1 sequence (Q9NWS0 51-180): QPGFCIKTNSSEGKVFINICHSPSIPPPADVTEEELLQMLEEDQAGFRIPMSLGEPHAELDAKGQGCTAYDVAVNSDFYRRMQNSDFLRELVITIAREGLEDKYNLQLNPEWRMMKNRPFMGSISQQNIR

PIH1D1 (51-180) (UniProt Q9NWS0), sequence (Q9NWS0 51-180): as above

Molecule: MRE11 pS558/pS561 peptide (ITC)
Kd (PIH1D1 (51-180) [2]): 26.1 µM | stoichiometry N (PIH1D1 (51-180) [2]): 1.1

Molecule: MRE11 pS688/pS689 peptide (ITC)
Kd (PIH1D1 (51-180) [2]): 40.9 µM | stoichiometry N (PIH1D1 (51-180) [2]): 0.8

Molecule: MRE11 third acidic sequence peptide phosphorylated on serines 688 and 689
Kd [1]: 41 µM

Results, then the molecule that gave them:

Kd [1]: 26 µM
Molecule: MRE11 DpSDD motif-containing peptide phosphorylated on serines 558 and 561

stoichiometry N (PIH1D1 (51-180) [3]): 1.3
B1: TEL2 pS491 peptide (peptide)
peptide: YSDLDSDDEFVPY
modifications: also: phosphoserine at 491 (TEL2 numbering), position in peptide not given here
notes: N-terminal tyrosine added for concentration determination; not part of TEL2; source: synthetic peptide
